Data taken from the supplement of paper PMC9170038.

Experiments:
MS2 coat protein [1] = assay: apparent KD of MS2 coat protein, switch OFF state (with FMN for OFF switches, without FMN for ON switches); designed switch direction (-1 OFF switch, 1 ON switch): -1; higher = weaker reporter binding; conditions: FMN input: 0 or 200 uM; Eterna round: R93 (includes R88 designs)
Outline: (§1)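 Binding of SNAP-549-labelled MS2 coat protein was measured on designed RNA switches transcribed on-chip from Illumina sequencing clusters. The protein rose in twofold steps from 0.7 or 1.5 nM to 3 µM, with 0.8–1.5 h per step early on and 10–20 min per step later, in 100 mM Tris-HCl pH 7.5, 80 mM KCl, 4 mM MgCl2, without or with constant ligand. Each design's apparent KD is the median of fits to its normalised cluster binding curves.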

MS2 coat protein [2] = assay: apparent KD of MS2 coat protein, switch ON state; designed switch direction (-1 OFF switch, 1 ON switch): -1; higher = weaker reporter binding; conditions: FMN input: 0 or 200 uM; Eterna round: R93 (includes R88 designs)
Outline: as §1

Sequence	apparent KD of MS2 coat protein (MS2 coat protein [1]) [nM]	apparent KD of MS2 coat protein (MS2 coat protein [2]) [nM]
AAAAUGGCAGGAUAUACUAAAAUAAAAAACUAUGCUAAAACACAUGAGGAUCACCCAUGUAGAAGGGCCAAAAA [AJ 5]	18.8	26.2
CCCAUGUCAGGAUAUCAGUAGUAAAAAAAAAAAAUUACUACUGAGAAGGGACAUGAGGAUCACCCAUGUCAAAA [EX4 315: Super Stable 15]	21	80.2
CCUGUGUGAGGAUAUGGUGUAAAAAAAAAAAAAUAGCUCCUCCAGAAGGCACAUGAGGAUCACCCAUGUCGUGG [Jolly's Folly 18 - Jieux - Exclusion 4]	65.8	32.9
AAAAACCUAGGAUAUACAUGAGGAUCACCCAUGUAAAGAAAAAAAAAGGGAAAAAAAAGUAGAAGGAGGAAGAA [JR_Exc003_Sub1201]	18.6	16.6
AAGAAGUGAGGAUAUCGAAGACAGACGAAAAGUCUGUCAAACGAGAAGGCACAUGAGGAUCACCCAUGUGGGAA [What have we learned so far? 64% 3]	169	69.5
ACUUAGACAGGAUAUACGUGAGUGGAAAAAGUGUAUCCACUACAUGAGGAUCACCCAUGUAGAAGGGUCUAAGA [Ex2 Design 182: Random 7]	19.7	18.6
CGCAAGUCAGGAUAUUCGACAGGUAAAUCAGUAGAUCAGAAGAAGAAGGGACAUGAGGAUCACCCAUGUAAGUA [JR_Exc004_Sub405]	24.3	41.1
UCCGGAUUAGGAUAUACAUGAGGAUCACCCAUGUGACAAAAAUAUUUUACAAAACCAUGUAGAAGGAAUCCGGA [E3-1.3]	408	125
ACCAGACAUGAGGAUCACCCAUGUCAGGAUAUCUAGAAAACCUCAUGUAAAAAAAUCUAGAGAAGGGAUAUGGA [Design 94: Pseudoknot D]	54.7	40.6
AAAAGCACAGGAUAUACAAAAAAAUGACGAAAGUCAUAGGGACAUGAGGAUCACCCAUGUAGAAGGGUGCAAAA [Mod of Meechl's... 64% 4]	440	197
AACAGGACAGGAUAUACAUGAGGAUCACCCAUGUAGGAAACAAGCAGAGUACCAAAAAGUAGAAGGGUCAUGGA [Ruby 30]	63.3	38.8
GAAAAACAUGAGGAUCACCCAUGUAAGGAUAUGCUGAAAAAACACUGGAAACAGUGCAGCAGAAGGUACAAAAG [Mat - Exclusion 1 - Eli mod - D100]	73.3	20.3
AAGAACACAGGAUAUACAUGAGGAUCACCCAUGUAAAAGAAAGAGGGAAAAGAGAAAAGUAGAAGGGUGAAGAA [Hugronaphor]	31.4	33.1
AAAAAACAUGAGGAUCACCCAUGUGAGGAUAUGAAAAAACAAAAAAAAAAGUAAUCAAUCAGAAGGCACAACAA [JR_Exc--1_Sub1210]	28.9	27.4
GGUUGGCGAGGAUAUACAUGAGGAUCACCCAUGUGAGAGAAAAAAGUGAGAAAGAAAAGUAGAAGGUGUUGACG [salish99-ex3-70]	56.7	55.4
AAUAAGUGAGGAUAUACGAAAUAAAUAAAUAAAUAAAUAAAGUAGAAGGCACAUGAGGAUCACCCAUGUAAUAA [My Mind Is Going Dave]	29.7	34.4
